Assays:
Assay in all cases: ΔPlySs1 OD600 lysis, 1 hr
Assay type in all cases: cell-based
S. uberis 27598 = test system: S. uberis 27598
S. mutans U159 = test system: S. mutans U159
S. suis ST11 = test system: S. suis ST11
Description: (§1) Given the above experiments, the following optimal buffering conditions were employed for all further in vitro experiments with ΔPlySs1: 20 mM phosphate buffer, pH=7.8, 2 mM EDTA. A range of lysin concentrations, from 6.5-130 μg/ml, were introduced to live S. suis cells in this buffer. Three strains were considered particularly relevant: 7711, the serotype 7 strain that encodes PlySs1; 5735, the serotype 2 reference strain; and 7997, a highly virulent serotype 9 strain. In terms of bacterial viability, only the highest PlySs1-concentration (130 μg/ml) led to a >90% decrease in CFUs for 7711, S735, and 7997 after 1 hr treatment (TABLE 2). The lysin was also tested against actively-dividing cells in broth culture (strain 7711) (FIG. 20).
(§2) ΔPlySs1 was further tested against a panel of 19 other S. suis strains of diverse serotypes, as well as other species of Gram-positive bacteria. The same lysin concentrations were used as above. For each dosage, the observed lysis values after 1 hr are listed in TABLE 3 and TABLE 4, and the information is summarized graphically in FIG. 21.

S. suis ST8 = test system: S. suis ST8
Description: as §1, §2

S. suis ST7 = test system: S. suis ST7
Description: as §1, §2

S. suis ST5 = test system: S. suis ST5
Description: as §1, §2

S. suis 8076 (ST9) = test system: S. suis 8076 (ST9)
Description: as §1, §2

S. suis ST2 = test system: S. suis ST2
Description: as §1, §2

S. suis 10 (ST2) = test system: S. suis 10 (ST2)
Description: as §1, §2

S. suis 6112 (ST1) = test system: S. suis 6112 (ST1)
Description: as §1, §2

S. suis ST14 = test system: S. suis ST14
Description: as §1, §2

S. suis ST6 = test system: S. suis ST6
Description: as §1, §2

S. suis ST3 = test system: S. suis ST3
Description: as §1, §2

S. suis 6388 (ST1) = test system: S. suis 6388 (ST1)
Description: as §1, §2

S. suis ST9 = test system: S. suis ST9
Description: as §1, §2

S. suis ST13 = test system: S. suis ST13
Description: as §1, §2

S. suis ST4 = test system: S. suis ST4
Description: as §1, §2

S. suis 7197 (ST7) = test system: S. suis 7197 (ST7)
Description: as §1, §2

S. suis ST10 = test system: S. suis ST10
Description: as §1, §2

S. suis ST1 = test system: S. suis ST1
Description: as §1, §2

S. gordonii 10558 = test system: S. gordonii 10558

B1: ΔPlySs1: truncated PlySs1 lysin with N-terminal enzymatic and central binding domains, N-terminal 254 amino acids, SEQ ID NO:2 (protein, listed as Streptococcus suis)
chain: MTINLETSIRWMSDRVGKVSYSMDYRNGPNSYDCSSAVYYALMAGGAISAGWAVNTEYMHDWLIRNGYVLVAENKPFNAQRHDVCILGKRGYSSGAGGHVVIFVDNVNVIHCNYARNGISIDNYNQVHRGMYYYLYRPANQPSISNKSLDQLVKETLAGVHGNGDTRKASLGSQYEAVMAVINGKASASEKSDEELAREVLAGKHGAGEDRKRSLGPRYEPVQAKVNELLKAKEKPSETAKNEPQTVQFKEDGDL
1-hour treated/untreated OD600-ratio (S. uberis 27598; 6.5 μg/ml): 0.42 | 1-hour treated/untreated OD600-ratio (S. uberis 27598; 13 μg/ml): 0.23 | 1-hour treated/untreated OD600-ratio (S. uberis 27598; 30 μg/ml): 0.16 | 1-hour treated/untreated OD600-ratio (S. uberis 27598; 65 μg/ml): 0.14 | 1-hour treated/untreated OD600-ratio (S. uberis 27598; 130 μg/ml): 0.12 | 1-hour treated/untreated OD600-ratio (S. mutans U159; 6.5 μg/ml): 0.95 | 1-hour treated/untreated OD600-ratio (S. mutans U159; 13 μg/ml): 0.99 | 1-hour treated/untreated OD600-ratio (S. mutans U159; 30 μg/ml): 0.94 | 1-hour treated/untreated OD600-ratio (S. mutans U159; 65 μg/ml): 0.76 | 1-hour treated/untreated OD600-ratio (S. mutans U159; 130 μg/ml): 0.85 | 1-hour treated/untreated OD600-ratio (S. suis ST11; 6.5 μg/ml): 0.64 | 1-hour treated/untreated OD600-ratio (S. suis ST11; 13 μg/ml): 0.47 | 1-hour treated/untreated OD600-ratio (S. suis ST11; 30 μg/ml): 0.32 | 1-hour treated/untreated OD600-ratio (S. suis ST11; 65 μg/ml): 0.19 | 1-hour treated/untreated OD600-ratio (S. suis ST11; 130 μg/ml): 0.07 | 1-hour treated/untreated OD600-ratio (S. suis ST8; 6.5 μg/ml): 0.25 | 1-hour treated/untreated OD600-ratio (S. suis ST8; 13 μg/ml): 0.12 | 1-hour treated/untreated OD600-ratio (S. suis ST8; 30 μg/ml): 0.06 | 1-hour treated/untreated OD600-ratio (S. suis ST8; 65 μg/ml): 0.03 | 1-hour treated/untreated OD600-ratio (S. suis ST8; 130 μg/ml): 0.03 | 1-hour treated/untreated OD600-ratio (S. suis ST7; 6.5 μg/ml): 0.65 | 1-hour treated/untreated OD600-ratio (S. suis ST7; 13 μg/ml): 0.47 | 1-hour treated/untreated OD600-ratio (S. suis ST7; 30 μg/ml): 0.34 | 1-hour treated/untreated OD600-ratio (S. suis ST7; 65 μg/ml): 0.22 | 1-hour treated/untreated OD600-ratio (S. suis ST7; 130 μg/ml): 0.11 | 1-hour treated/untreated OD600-ratio (S. suis ST5; 6.5 μg/ml): 0.78 | 1-hour treated/untreated OD600-ratio (S. suis ST5; 13 μg/ml): 0.59 | 1-hour treated/untreated OD600-ratio (S. suis ST5; 30 μg/ml): 0.39 | 1-hour treated/untreated OD600-ratio (S. suis ST5; 65 μg/ml): 0.22 | 1-hour treated/untreated OD600-ratio (S. suis ST5; 130 μg/ml): 0.10 | 1-hour treated/untreated OD600-ratio (S. suis 8076 (ST9); 6.5 μg/ml): 0.52 | 1-hour treated/untreated OD600-ratio (S. suis 8076 (ST9); 13 μg/ml): 0.40 | 1-hour treated/untreated OD600-ratio (S. suis 8076 (ST9); 30 μg/ml): 0.21 | 1-hour treated/untreated OD600-ratio (S. suis 8076 (ST9); 65 μg/ml): 0.14 | 1-hour treated/untreated OD600-ratio (S. suis 8076 (ST9); 130 μg/ml): 0.04 | 1-hour treated/untreated OD600-ratio (S. suis ST2; 6.5 μg/ml): 0.79 | 1-hour treated/untreated OD600-ratio (S. suis ST2; 13 μg/ml): 0.70 | 1-hour treated/untreated OD600-ratio (S. suis ST2; 30 μg/ml): 0.49 | 1-hour treated/untreated OD600-ratio (S. suis ST2; 65 μg/ml): 0.34 | 1-hour treated/untreated OD600-ratio (S. suis ST2; 130 μg/ml): 0.17 | 1-hour treated/untreated OD600-ratio (S. suis 10 (ST2); 6.5 μg/ml): 0.29 | 1-hour treated/untreated OD600-ratio (S. suis 10 (ST2); 13 μg/ml): 0.18 | 1-hour treated/untreated OD600-ratio (S. suis 10 (ST2); 30 μg/ml): 0.10 | 1-hour treated/untreated OD600-ratio (S. suis 10 (ST2); 65 μg/ml): 0.05 | 1-hour treated/untreated OD600-ratio (S. suis 10 (ST2); 130 μg/ml): 0.02 | 1-hour treated/untreated OD600-ratio (S. suis 6112 (ST1); 6.5 μg/ml): 0.14 | 1-hour treated/untreated OD600-ratio (S. suis 6112 (ST1); 13 μg/ml): 0.11 | 1-hour treated/untreated OD600-ratio (S. suis 6112 (ST1); 30 μg/ml): 0.06 | 1-hour treated/untreated OD600-ratio (S. suis 6112 (ST1); 65 μg/ml): 0.02 | 1-hour treated/untreated OD600-ratio (S. suis 6112 (ST1); 130 μg/ml): 0.01 | 1-hour treated/untreated OD600-ratio (S. suis ST14; 6.5 μg/ml): 0.79 | 1-hour treated/untreated OD600-ratio (S. suis ST14; 13 μg/ml): 0.57 | 1-hour treated/untreated OD600-ratio (S. suis ST14; 30 μg/ml): 0.33 | 1-hour treated/untreated OD600-ratio (S. suis ST14; 65 μg/ml): 0.15 | 1-hour treated/untreated OD600-ratio (S. suis ST14; 130 μg/ml): 0.06 | 1-hour treated/untreated OD600-ratio (S. suis ST6; 6.5 μg/ml): 0.76 | 1-hour treated/untreated OD600-ratio (S. suis ST6; 13 μg/ml): 0.56 | 1-hour treated/untreated OD600-ratio (S. suis ST6; 30 μg/ml): 0.40 | 1-hour treated/untreated OD600-ratio (S. suis ST6; 65 μg/ml): 0.21 | 1-hour treated/untreated OD600-ratio (S. suis ST6; 130 μg/ml): 0.06 | 1-hour treated/untreated OD600-ratio (S. suis ST3; 6.5 μg/ml): 0.81 | 1-hour treated/untreated OD600-ratio (S. suis ST3; 13 μg/ml): 0.71 | 1-hour treated/untreated OD600-ratio (S. suis ST3; 30 μg/ml): 0.48 | 1-hour treated/untreated OD600-ratio (S. suis ST3; 65 μg/ml): 0.32 | 1-hour treated/untreated OD600-ratio (S. suis ST3; 130 μg/ml): 0.16 | 1-hour treated/untreated OD600-ratio (S. suis 6388 (ST1); 6.5 μg/ml): 0.15 | 1-hour treated/untreated OD600-ratio (S. suis 6388 (ST1); 13 μg/ml): 0.13 | 1-hour treated/untreated OD600-ratio (S. suis 6388 (ST1); 30 μg/ml): 0.06 | 1-hour treated/untreated OD600-ratio (S. suis 6388 (ST1); 65 μg/ml): 0.03 | 1-hour treated/untreated OD600-ratio (S. suis 6388 (ST1); 130 μg/ml): 0.02 | 1-hour treated/untreated OD600-ratio (S. suis ST9; 6.5 μg/ml): 0.50 | 1-hour treated/untreated OD600-ratio (S. suis ST9; 13 μg/ml): 0.30 | 1-hour treated/untreated OD600-ratio (S. suis ST9; 30 μg/ml): 0.23 | 1-hour treated/untreated OD600-ratio (S. suis ST9; 65 μg/ml): 0.13 | 1-hour treated/untreated OD600-ratio (S. suis ST9; 130 μg/ml): 0.05 | 1-hour treated/untreated OD600-ratio (S. suis ST13; 6.5 μg/ml): 0.32 | 1-hour treated/untreated OD600-ratio (S. suis ST13; 13 μg/ml): 0.17 | 1-hour treated/untreated OD600-ratio (S. suis ST13; 30 μg/ml): 0.04 | 1-hour treated/untreated OD600-ratio (S. suis ST13; 65 μg/ml): 0.02 | 1-hour treated/untreated OD600-ratio (S. suis ST13; 130 μg/ml): 0.02 | 1-hour treated/untreated OD600-ratio (S. suis ST4; 6.5 μg/ml): 0.63 | 1-hour treated/untreated OD600-ratio (S. suis ST4; 13 μg/ml): 0.47 | 1-hour treated/untreated OD600-ratio (S. suis ST4; 30 μg/ml): 0.32 | 1-hour treated/untreated OD600-ratio (S. suis ST4; 65 μg/ml): 0.22 | 1-hour treated/untreated OD600-ratio (S. suis ST4; 130 μg/ml): 0.12 | 1-hour treated/untreated OD600-ratio (S. suis 7197 (ST7); 6.5 μg/ml): 0.64 | 1-hour treated/untreated OD600-ratio (S. suis 7197 (ST7); 13 μg/ml): 0.49 | 1-hour treated/untreated OD600-ratio (S. suis 7197 (ST7); 30 μg/ml): 0.39 | 1-hour treated/untreated OD600-ratio (S. suis 7197 (ST7); 65 μg/ml): 0.16 | 1-hour treated/untreated OD600-ratio (S. suis 7197 (ST7); 130 μg/ml): 0.07 | 1-hour treated/untreated OD600-ratio (S. suis ST10; 6.5 μg/ml): 0.85 | 1-hour treated/untreated OD600-ratio (S. suis ST10; 13 μg/ml): 0.72 | 1-hour treated/untreated OD600-ratio (S. suis ST10; 30 μg/ml): 0.55 | 1-hour treated/untreated OD600-ratio (S. suis ST10; 65 μg/ml): 0.44 | 1-hour treated/untreated OD600-ratio (S. suis ST10; 130 μg/ml): 0.28 | 1-hour treated/untreated OD600-ratio (S. suis ST1; 6.5 μg/ml): 0.80 | 1-hour treated/untreated OD600-ratio (S. suis ST1; 13 μg/ml): 0.34 | 1-hour treated/untreated OD600-ratio (S. suis ST1; 30 μg/ml): 0.36 | 1-hour treated/untreated OD600-ratio (S. suis ST1; 65 μg/ml): 0.19 | 1-hour treated/untreated OD600-ratio (S. suis ST1; 130 μg/ml): 0.06 | 1-hour treated/untreated OD600-ratio (S. gordonii 10558; 6.5 μg/ml): 0.76 | 1-hour treated/untreated OD600-ratio (S. gordonii 10558; 13 μg/ml): 0.32 | 1-hour treated/untreated OD600-ratio (S. gordonii 10558; 30 μg/ml): 0.19 | 1-hour treated/untreated OD600-ratio (S. gordonii 10558; 65 μg/ml): 0.09 | 1-hour treated/untreated OD600-ratio (S. gordonii 10558; 130 μg/ml): 0.06

From patent publication US20140179594A1, “STREPTOCOCCUS BACTERIOPHAGE LYSINS FOR TREATMENT OF GRAM POSITIVE BACTERIA IN COMPANION ANIMALS AND LIVESTOCK” (priority 2011, published 2014)
